Data taken from patent US20040176567A1, “Modified calcitonin” (priority 2001, published 2004).
Marks after values point to notes of the source that are not given here. Bridge positions count the residues as written; N and C are the ends. Ends that are not written are not given here.

Legend:
[1] = Secondary structure (helical content) by circular dichroism; type: physicochemical; details: for Helical content compared with hCT: neutral and low pH (7.0 and 3.0); for Helical content by CD: neutral pH (7.0), 25° C., ellipticity at 222 nm
Method: FIG. 2. Secondary structure of calcitonin peptides measured by circular dichroism. Experiments reflect the thermal denaturation profile of the peptides at pH 7.0 and 3.0 respectively. Ellipticity was measured at 222 nm and reflects the α-helical content of the peptides. Helical content based on CD spectra calculations (25° C.) according to Chen et al. (1974). Biochemistry 13, 3350-59.
Circular dichroism and Nuclear magnetic resonance were used to characterise the structural properties of human (hCT), salmon (sCT) and 6 chR (6 chR) calcitonin. Peptide concentration was estimated by amino acid analysis.

[2] = Aggregation studies, turbidity at 340 nm; type: physicochemical; details: for Aggregation time (turbidity at 340 nm) / Aggregation time (development of turbidity at 340 nm) / Aggregation time (half time, turbidity at 340 nm): 37° C., pH 7.2
Method: Aggregation analysis was carried out as reported previously (Arvinte, T. et al., 1993, J. Biol. Chem, 268, 6415-6422) using PBS 5 mM sodium phosphate, 145 mM NaCl, pH 7.2. (sodium phosphate saline buffer) pH 7.2 and adding a minor amount of sodium azide to prevent bacterial growth (0.1%). Samples were always incubated at 37° C.
Aggregation was monitored by measuring turbidity at 340 nm. Different concentrations of peptide were tested.

T47D (HTB 133) cells = experiment: Calcitonin activity by cyclic AMP intracellular accumulation; type: cell-based, Human; details: for cAMP stimulation compared with basal levels: saturation concentration 1·10^−6 M, 15 min at 37° C., T47D cells
From the text: Activity tests may be carried out in suitable animal models using, for example chickens or mice. Activity can also be monitored in vitro, for example in cellular cultures. LLC-PKI kidney cells may be used, for which calcitonin has been reported to increase alkaline phosphatase activity and cAMP levels Wohlwend A et al (1985) Biochem Biophys Commen 131 537-542, Miyamoto K. I. et al (1998) Jpn. J. Pharmacol 76.193-198. […] We used a combination of two previously described systems with some modifications (Zimmerman, U. et al, 1997, J. Endocrinol. 155, 423-431; Miyamoto, K. I. et al, 1998, Jpn. J. Pharmacol 76, 193-198). Human ductal carcinoma T47D (HTB 133) cells were used for the assays.
T47D (HTB 133) cells were purchased from the American Type Culture Collection (ATCC) and grown in RPMI-1640 modified medium (ATCC) containing 2 mM L-glutamine, 10 mM HEPES, 1 mM sodium pyruvate, 4.5 g/L glucose and 1.5 g/L sodium bicarbonate. This medium was supplemented with 10% heat-inactivated fetal calf serum, 25 μg/mL gentamycin and 100 nM dexamethasone, this last to enhance the expression of calcitonin receptors. Cells were grown in a humidified atmosphere of 95% air-5% CO2 at 37° C.
Cyclic AMP (cAMP) accumulation was used to measure the degree of stimulation upon incubation in the presence of different calcitonin peptides. Typically cells were grown in multi-well plates until confluency was reached and then washed with pre-heated DPBS-glucose (Gibco, Invitrogen) to remove any traces of fetal serum. Sample solutions were prepared by dissolving different amounts of hCT, sCT and 6 chR (6 CT) in DPBS-glucose supplemented with 0.1% BSA and 1 mM IBMX (3-isobuthyl-1-methylxanthine). After being washed, cells were incubated for 15 min at 37° C. in the presence of the peptide solutions. Medium was then removed by aspiration and cells were rapidly frozen on dry-ice and then kept at −80° C. until cAMP measurements were carried out.
Cyclic AMP content of different samples was measured using a commercial AMP enzyme immunoassay (EIA) system (Biotrak, Amersham-Biotech) according to manufacturer's specifications. Different dilutions of cellular extracts were measured in order to cover the whole range of stimulation caused by calcitonin incubation. Saturation concentrations (1·10^−6 M) of the three peptides (hCT, sCT & 6chR) were used to establish the maximum capacity of stimulation for each one of the different sequences. […] All three peptides show clear stimulation effects confirming the calcitonin-like activity of the engineered 6 chR (6 CT) peptide.

[3] = biological target: calcitonin receptors on human ductal carcinoma T47D (HTB 133) cells (human) (UniProt P30988); experiment: cell-based or functional assay; details: scale: orders of magnitude compared with the basal levels
Chain of UniProt P30988 (P30988 25-474, stated change not applied): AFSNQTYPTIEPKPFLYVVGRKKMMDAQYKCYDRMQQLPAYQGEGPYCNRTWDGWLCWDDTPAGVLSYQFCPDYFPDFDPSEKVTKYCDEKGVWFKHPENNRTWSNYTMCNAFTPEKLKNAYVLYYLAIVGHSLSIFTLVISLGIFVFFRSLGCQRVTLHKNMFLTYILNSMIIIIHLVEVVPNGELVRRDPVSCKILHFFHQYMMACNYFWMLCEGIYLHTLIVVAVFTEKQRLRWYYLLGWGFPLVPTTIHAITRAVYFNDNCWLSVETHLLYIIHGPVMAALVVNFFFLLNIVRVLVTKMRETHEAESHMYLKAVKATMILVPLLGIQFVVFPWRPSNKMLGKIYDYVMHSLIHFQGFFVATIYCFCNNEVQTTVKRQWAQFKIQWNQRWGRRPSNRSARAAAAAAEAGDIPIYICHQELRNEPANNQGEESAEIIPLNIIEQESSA

CGNLSTCMLGKLTQELRKLHTFPQTAIGVGAP (disulfide 1-7; ends not checked) [6chR]
Helical content compared with hCT [1]: enhanced helical content | Helical content by CD [1]: 21.1% | Time required to aggregate relative to the human peptide [2]: at least two orders of magnitude larger | Aggregation time (turbidity at 340 nm) ([2]; 1 mg/mL filtered 0.5 μm, no aggregation detected at the end of the experiment): (>10 months)^c | Aggregation time (turbidity at 340 nm) ([2]; 10 mM (~35 mg/mL) unfiltered): 18 days | Aggregation time (turbidity at 340 nm) ([2]; 10 mg/mL filtered 0.5 μm, no aggregation detected at the end of the experiment): (>10 months)^c | Aggregation time (turbidity at 340 nm) ([2]; 10 mg/mL unfiltered, no aggregation detected at the end of the experiment): (>10 months)^c | Aggregation behaviour compared with human calcitonin (FIG. 1) ([2]; 35 mg/mL, solutions not filtered): aggregates much more slowly than the human form | Time without detectable aggregation ([2]; concentrations of 10 mg/mL or below, unfiltered and filtered solutions): > 10 months | cAMP stimulation effect compared with hCT and sCT (T47D (HTB 133) cells; 1·10^−6 M, T47D cells (FIG. 3)): clearly higher than that of the hCT and even the sCT peptide | cAMP stimulation compared with basal levels (T47D (HTB 133) cells): close to three orders of magnitude

CSNLSTCVLGKLSQELHKLQTYPRTNTGSGTP [Salmon-1]
Helical content compared with hCT [1]: higher helical content than hCT | Helical content by CD [1]: 22.5% | cAMP stimulation compared with basal levels (T47D (HTB 133) cells): close to three orders of magnitude

salmon calcitonin (from UniProt P01263 83-114) (peptide)
intracellular cAMP accumulation in T47D cells, peptide at saturation concentration 1·10^-6 M, 15 min, cAMP EIA [3]: 3

CGNLSTCMLGTYTQDFNKFHTFPQTAIGVGAP [Human, reference compound]
Helical content by CD [1]: 11.3% | Aggregation time (development of turbidity at 340 nm) ([2]; 1 mg/mL filtered 0.5 μm): ˜45 days | Aggregation time (half time, turbidity at 340 nm) ([2]; 10 mM (~35 mg/mL) unfiltered): 4 h | Aggregation time (development of turbidity at 340 nm) ([2]; 10 mg/mL filtered 0.5 μm): ˜26 days | Aggregation time (half time, turbidity at 340 nm) ([2]; 10 mg/mL unfiltered): ˜30 hours | cAMP stimulation compared with basal levels (T47D (HTB 133) cells): close to three orders of magnitude
